Assays:
[1] = molecular target: HSV-1 gB730 (HSV-1 glycoprotein B ectodomain) (HSV-1) (UniProt P06437); test: SEC-MALS
[2] = molecular target: the molecule itself; test: mildly denaturing SDS-PAGE
SEC-MALS = molecular target: the molecule itself; test: SEC-MALS

## HSV-1 gB730 (HSV-1 glycoprotein B ectodomain) (from UniProt P06437 31-730) (domain or fragment)
[1]
  stoichiometry N: 3

B1: HCMV gB706-CHis6 (HCMV strain AD169 glycoprotein B ectodomain, residues 25-706, C-terminal His6 tag) (domain or fragment)
chain: DPSSSTSHATSSTHNGSHTSRTTSAQTRSVYSQHVTSSEAVSHRANETIYNTTLKYGDVVGVNTTKYPYRVCSMAQGTDLIRFERNIICTSMKPINEDLDEGIMVVYKRNIVAHTFKVRVYQKVLTFRRSYAYIYTTYLLGSNTEYVAPPMWEIHHINKFAQCYSSYSRVIGGTVFVAYHRDSYENKTMQLIPDDYSNTHSTRYVTVKDQWHSRGSTWLYRETCNLNCMLTITTARSKYPYHFFATSTGDVVYISPFYNGTNRNASYFGENADKFFIFPNYTIVSDFGRPNAAPETHRLVAFLERADSVISWDIQDEKNVTCQLTFWEASERTIRSEAEDSYHFSSAKMTATFLSKKQEVNMSDSALDCVRDEAINKLQQIFNTSYNQTYEKYGNVSVFETSGGLVVFWQGIKQKSLVELERLANRSSLNITHRTRRSTSDNNTTHLSSMESVHNLVYAQLQFTYDTLRGYINRALAQIAEAWCVDQRRTLEVFKELSKINPSAILSAIYNKPIAARFMGDVLGLASCVTINQTSVKVLRDMNVKESPGRCYSRPVVIFNFANSSYVQYGQLGEDNEILLGNHRTEECQLPSLKIFIAGNSAYEYVDYLFKRMIDLSSISTVDSMIALDIDPLENTDFRVLELYSQKELRSSNVFDLEEIMREFNSYKQRVKYVEDKVVDPLPP
[2]
  binding result: binds

B2: HCMV gB706-4M (HCMV strain AD169 glycoprotein B ectodomain, residues 25-706, Y155G/I156H/Y157R/W240A) (domain or fragment)
chain: DPSSSTSHATSSTHNGSHTSRTTSAQTRSVYSQHVTSSEAVSHRANETIYNTTLKYGDVVGVNTTKYPYRVCSMAQGTDLIRFERNIICTSMKPINEDLDEGIMVVYKRNIVAHTFKVRVYQKVLTFRRSYAGHRTTYLLGSNTEYVAPPMWEIHHINKFAQCYSSYSRVIGGTVFVAYHRDSYENKTMQLIPDDYSNTHSTRYVTVKDQWHSRGSTALYRETCNLNCMLTITTARSKYPYHFFATSTGDVVYISPFYNGTNRNASYFGENADKFFIFPNYTIVSDFGRPNAAPETHRLVAFLERADSVISWDIQDEKNVTCQLTFWEASERTIRSEAEDSYHFSSAKMTATFLSKKQEVNMSDSALDCVRDEAINKLQQIFNTSYNQTYEKYGNVSVFETSGGLVVFWQGIKQKSLVELERLANRSSLNITHRTRRSTSDNNTTHLSSMESVHNLVYAQLQFTYDTLRGYINRALAQIAEAWCVDQRRTLEVFKELSKINPSAILSAIYNKPIAARFMGDVLGLASCVTINQTSVKVLRDMNVKESPGRCYSRPVVIFNFANSSYVQYGQLGEDNEILLGNHRTEECQLPSLKIFIAGNSAYEYVDYLFKRMIDLSSISTVDSMIALDIDPLENTDFRVLELYSQKELRSSNVFDLEEIMREFNSYKQRVKYVEDKVVDPLPP
modifications: N-linked glycosylation (mass difference of 22.9 kDa suggested that all 18 predicted N-linked glycosylation sites were glycosylated)
SEC-MALS
  stoichiometry N: 3

— article PMC3534942 (Virology, 2012)
